From the supplement of paper PMC9112550, “Optimization of the antimicrobial peptide Bac7 by deep mutational scanning” (BMC Biology, 2022)

System: Escherichia coli TOP10
Test: shrunken log2 fold change of peptide-encoding DNA abundance (4.5 h post-induction vs induction); higher = less antimicrobial activity (less host growth inhibition)
Conditions: time post-induction: 4.5 h; library: site-saturation at positions 5, 18, 19, 20
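Also: peptides expressed intracellularly from a pBAD plasmid library in pooled LB shake-flask culture, induced with 0.3% L-arabinose, DNA abundance read by NGS, three biological replicates, DESeq2 with apeglm shrinkage.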

| Sequence | shrunken log2 fold change |
| --- | --- |
| RRIRNRPPRLPRPRPRPELPPRP | -0.098 |
| RRIRARPPRLPRPRPRPPYPPRP | 0.256 |
| RRIRPRPPRLPRPRPRPAWVPRP | 0.401 |
| RRIRIRPPRLPRPRPRPTEHPRP | -0.449 |
| RRIRRRPPRLPRPRPRPNWNPRP | -0.115 |
| RRIRRRPPRLPRPRPRPQCWPRP | 0.557 |
| RRIRWRPPRLPRPRPRPSSCPRP | -0.0941 |
| RRIRTRPPRLPRPRPRPVSEPRP | 0.135 |
| RRIRHRPPRLPRPRPRPCAAPRP | -0.195 |
| RRIRNRPPRLPRPRPRPSLYPRP | -0.0524 |
| RRIRPRPPRLPRPRPRPPFHPRP | 0.011 |
| RRIRRRPPRLPRPRPRPDYFPRP | -0.0877 |
| RRIRSRPPRLPRPRPRPNECPRP | -0.136 |
| RRIRFRPPRLPRPRPRPGNMPRP | -0.198 |
| RRIRFRPPRLPRPRPRPALAPRP | 0.257 |
| RRIRNRPPRLPRPRPRPKGDPRP | 0.0687 |
| RRIRVRPPRLPRPRPRPYSDPRP | -0.145 |
| RRIRGRPPRLPRPRPRPGARPRP | 0.953 |
| RRIRERPPRLPRPRPRPELCPRP | 0.511 |
| RRIRWRPPRLPRPRPRPYDAPRP | -0.189 |

| Sequence | shrunken log2 fold change |
| --- | --- |
| RRIRKRPPRLPRPRPRPKNKPRP | 0.287 |
| RRIRSRPPRLPRPRPRPYIPPRP | -1.28 |
| RRIRRRPPRLPRPRPRPDKNPRP | 0.0344 |
| RRIRTRPPRLPRPRPRPMDIPRP | -0.00738 |
| RRIRERPPRLPRPRPRPNISPRP | -1.14 |
| RRIRKRPPRLPRPRPRPIFKPRP | 0.307 |
| RRIRHRPPRLPRPRPRPKKVPRP | 0.00707 |
| RRIRHRPPRLPRPRPRPPGNPRP | 0.133 |
| RRIRMRPPRLPRPRPRPGQWPRP | 0.204 |
| RRIRLRPPRLPRPRPRPVESPRP | -0.0112 |
| RRIRERPPRLPRPRPRPPVHPRP | -0.145 |
| RRIRQRPPRLPRPRPRPRMWPRP | -0.429 |
| RRIRARPPRLPRPRPRPSHQPRP | -0.138 |
| RRIRHRPPRLPRPRPRPEREPRP | 0.0173 |
| RRIRKRPPRLPRPRPRPNKFPRP | -0.0338 |
| RRIRFRPPRLPRPRPRPWWMPRP | -0.168 |
| RRIRWRPPRLPRPRPRPLGSPRP | -0.0308 |
| RRIRCRPPRLPRPRPRPKSYPRP | -0.443 |
| RRIRYRPPRLPRPRPRPCMCPRP | -0.516 |
| RRIRMRPPRLPRPRPRPLKYPRP | -0.0456 |

| Sequence | shrunken log2 fold change |
| --- | --- |
| RRIRFRPPRLPRPRPRPIECPRP | -0.00174 |
| RRIRARPPRLPRPRPRPCMDPRP | 0.0143 |
| RRIRPRPPRLPRPRPRPFQNPRP | -0.445 |
| RRIRMRPPRLPRPRPRPKRWPRP | 1.51 |
| RRIRNRPPRLPRPRPRPNSIPRP | -0.728 |
| RRIRARPPRLPRPRPRPQQKPRP | 0.153 |
| RRIRQRPPRLPRPRPRPKIKPRP | -0.273 |
| RRIRNRPPRLPRPRPRPHQVPRP | 0.0294 |
| RRIRHRPPRLPRPRPRPPITPRP | -0.346 |
| RRIRGRPPRLPRPRPRPVRHPRP | 0.496 |
| RRIRSRPPRLPRPRPRPNAYPRP | -0.696 |
| RRIRGRPPRLPRPRPRPCTHPRP | -0.0414 |
| RRIRTRPPRLPRPRPRPKAIPRP | 0.00211 |
| RRIRFRPPRLPRPRPRPGSRPRP | 0.191 |
| RRIRKRPPRLPRPRPRPYWFPRP | 0.00102 |
| RRIRNRPPRLPRPRPRPMYYPRP | 0.0222 |
| RRIRCRPPRLPRPRPRPVHFPRP | 0.128 |
| RRIRSRPPRLPRPRPRPAICPRP | 0.147 |
| RRIRVRPPRLPRPRPRPEIWPRP | 0.223 |
| RRIRARPPRLPRPRPRPIHTPRP | 0.0197 |
